As usually defined, the stoichiometry N is the number of molecules, sites or subunits per partner or assembly.

This is an account of results in paper PMC2809091.

For experiment [1], the target named is F137L/E363G variant of S. pyogenes enolase (S. pyogenes) (UniProt P69949). The experiment in a line: AUC; sedimentation velocity; 19.4 µM enolase incubated in 0.2 M NaClO4, then dialysed 24 hours against buffer (reassociation).
Experiment [2] shares this target. The experiment can be described thus: AUC; sedimentation velocity, 20°C; pH 9.0, 50 mM Tris or glycine with 1 mM Mg(OAc)2 and 0.1 mM EDTA; octamer to monomers.
Experiment [3] shares this target. The experiment in a line: AUC; sedimentation velocity, 20°C; pH 7.4, 50 mM Tris with 1 mM Mg(OAc)2 and 0.1 mM EDTA.
Experiment [4] shares this target. The experiment can be described thus: AUC; sedimentation velocity, 15°C; 2.7 µM enolase incubated 18 h at 15°C in TME with NaClO4 (up to 0.4 M); octamer to monomers.
The target is the same in experiment [5]. The experiment in a line: AUC; sedimentation velocity; 22.7 µM enolase in TME with varying NaClO4; octamer to monomers.
The target is the same in experiment [6]. The experiment in a line: AUC; sedimentation velocity; 19.4 µM enolase after incubation in 0.2 M NaClO4; octamer to monomers.

“F137L/E363G variant of S. pyogenes enolase (from UniProt P69949 1-435) (enzyme)” yielded a percent octameric after dialysis against buffer in experiment [1] of 77%. The substance further yielded a percent monomeric in experiment [2] of 54%. Moreover, the results for the percent octameric in experiment [2] and in experiment [3] were 39% and 88%, respectively. The stoichiometry N in experiment [3] is 8. In addition, the NaClO4 concentration at 50% dissociation turned out to be 0.06 M in experiment [4] and 0.12 M in experiment [5]. The substance further had a percent octameric in 0.2 M NaClO4 in experiment [6] of 21%.
